Reference: patent US20250340643A1 (AstraZeneca / MedImmune, published 2025)
Like-named read-outs stand apart in the source and are kept apart here.

How the values were obtained:
[1] = target: T1, CTLA4 on the cells of the reporter gene bioassay (human, UniProt P16410 36-223); assay: cell-based or functional assay
T1 sequence (looked up): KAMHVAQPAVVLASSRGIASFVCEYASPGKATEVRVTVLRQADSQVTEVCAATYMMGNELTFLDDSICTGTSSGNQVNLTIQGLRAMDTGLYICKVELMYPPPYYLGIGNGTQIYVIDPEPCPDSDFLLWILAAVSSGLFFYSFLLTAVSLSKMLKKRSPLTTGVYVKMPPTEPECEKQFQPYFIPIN

recombinant FcRn = target: T2, recombinant FcRn (UniProt P55899 24-297; P61769 21-119, limits assumed); assay: SPR, recombinant FcRn immobilized on the sensor; relative to Reference Standard
T2 construct: also called Neonatal Fc Receptor
T2 sequence (P55899 24-297 limits assumed, form in doubt, chain 1 of 2): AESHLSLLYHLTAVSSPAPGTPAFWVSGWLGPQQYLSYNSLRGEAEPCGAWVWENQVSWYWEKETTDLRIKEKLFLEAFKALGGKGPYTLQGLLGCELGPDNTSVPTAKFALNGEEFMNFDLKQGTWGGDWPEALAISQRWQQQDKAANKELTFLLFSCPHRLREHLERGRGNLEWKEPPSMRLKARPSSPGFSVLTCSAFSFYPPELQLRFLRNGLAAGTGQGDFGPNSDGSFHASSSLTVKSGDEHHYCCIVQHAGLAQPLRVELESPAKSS
T2 sequence (P61769 21-119 limits assumed, form in doubt, chain 2 of 2): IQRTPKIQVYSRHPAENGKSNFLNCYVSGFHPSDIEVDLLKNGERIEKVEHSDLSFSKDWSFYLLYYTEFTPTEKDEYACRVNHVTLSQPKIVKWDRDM
From the text: A surface plasmon resonance binding assay was used to measure FcRn binding. This method is based on the ability of the test sample to bind to recombinant FcRn that has been immobilized on an SPR sensor surface. A reference flow cell was created using the same standard amine coupling procedure without the addition of FcRn.

[2] = target: T1, CTLA4 on the cells of the reporter gene …; assay: cell-based or functional assay; remark: listed apart in the source

B1: Tremelimumab incubated in human serum at 37° C., week 4 (antibody, human IgG2, kappa, V domains shown)
VH: QVQLVESGGGVVQPGRSLRLSCAASGFTFSSYGMHWVRQAPGKGLEWVAVIWYDGSNKYYADSVKGRFTISRDNSKNTLYLQMNSLRAEDTAVYYCARDPRGATLYYYYYGMDVWGQGTTVTVSS
VL: DIQMTQSPSSLSASVGDRVTITCRASQSINSYLDWYQQKPGKAPKLLIYAASSLQSGVPSRFSGSGSGTDFTLTISSLQPEDFATYYCQQYYSTPFTFGPGTKVEIKR
modifications: Asn-30 deamidated in 34.8% (peptide mapping)
- Relative Potency (%) [1]: 76%

B2: Tremelimumab incubated in PBS at 37° C., week 4 (antibody, human IgG2, kappa, V domains shown)
VH: QVQLVESGGGVVQPGRSLRLSCAASGFTFSSYGMHWVRQAPGKGLEWVAVIWYDGSNKYYADSVKGRFTISRDNSKNTLYLQMNSLRAEDTAVYYCARDPRGATLYYYYYGMDVWGQGTTVTVSS
VL: DIQMTQSPSSLSASVGDRVTITCRASQSINSYLDWYQQKPGKAPKLLIYAASSLQSGVPSRFSGSGSGTDFTLTISSLQPEDFATYYCQQYYSTPFTFGPGTKVEIKR
modifications: Asn-30 deamidated in 37.7% (peptide mapping)
- Relative Potency (%) [1]: 76%

B3: Tremelimumab incubated in PBS at 37° C., week 0 (antibody, human IgG2, kappa, V domains shown)
VH: QVQLVESGGGVVQPGRSLRLSCAASGFTFSSYGMHWVRQAPGKGLEWVAVIWYDGSNKYYADSVKGRFTISRDNSKNTLYLQMNSLRAEDTAVYYCARDPRGATLYYYYYGMDVWGQGTTVTVSS
VL: DIQMTQSPSSLSASVGDRVTITCRASQSINSYLDWYQQKPGKAPKLLIYAASSLQSGVPSRFSGSGSGTDFTLTISSLQPEDFATYYCQQYYSTPFTFGPGTKVEIKR
modifications: Asn-30 deamidated in 2.2% (peptide mapping)
- Relative Potency (%) [1]: 92%

B4: Tremelimumab incubated in human serum at 37° C., week 0 (antibody, human IgG2, kappa, V domains shown)
VH: QVQLVESGGGVVQPGRSLRLSCAASGFTFSSYGMHWVRQAPGKGLEWVAVIWYDGSNKYYADSVKGRFTISRDNSKNTLYLQMNSLRAEDTAVYYCARDPRGATLYYYYYGMDVWGQGTTVTVSS
VL: DIQMTQSPSSLSASVGDRVTITCRASQSINSYLDWYQQKPGKAPKLLIYAASSLQSGVPSRFSGSGSGTDFTLTISSLQPEDFATYYCQQYYSTPFTFGPGTKVEIKR
modifications: Asn-30 deamidated in 3.4% (peptide mapping)
- Relative Potency (%) [1]: 106%

B5: Tremelimumab incubated in PBS at 37° C., week 2 (antibody, human IgG2, kappa, V domains shown)
VH: QVQLVESGGGVVQPGRSLRLSCAASGFTFSSYGMHWVRQAPGKGLEWVAVIWYDGSNKYYADSVKGRFTISRDNSKNTLYLQMNSLRAEDTAVYYCARDPRGATLYYYYYGMDVWGQGTTVTVSS
VL: DIQMTQSPSSLSASVGDRVTITCRASQSINSYLDWYQQKPGKAPKLLIYAASSLQSGVPSRFSGSGSGTDFTLTISSLQPEDFATYYCQQYYSTPFTFGPGTKVEIKR
modifications: Asn-30 deamidated in 18.5% (peptide mapping)
- Relative Potency (%) [1]: 83%

B6: Tremelimumab incubated in human serum at 37° C., week 2 (antibody, human IgG2, kappa, V domains shown)
VH: QVQLVESGGGVVQPGRSLRLSCAASGFTFSSYGMHWVRQAPGKGLEWVAVIWYDGSNKYYADSVKGRFTISRDNSKNTLYLQMNSLRAEDTAVYYCARDPRGATLYYYYYGMDVWGQGTTVTVSS
VL: DIQMTQSPSSLSASVGDRVTITCRASQSINSYLDWYQQKPGKAPKLLIYAASSLQSGVPSRFSGSGSGTDFTLTISSLQPEDFATYYCQQYYSTPFTFGPGTKVEIKR
modifications: Asn-30 deamidated in 22.9% (peptide mapping)
- Relative Potency (%) [1]: 91%

B7: Tremelimumab incubated in human serum at 37° C., week 5 (antibody, human IgG2, kappa, V domains shown)
VH: QVQLVESGGGVVQPGRSLRLSCAASGFTFSSYGMHWVRQAPGKGLEWVAVIWYDGSNKYYADSVKGRFTISRDNSKNTLYLQMNSLRAEDTAVYYCARDPRGATLYYYYYGMDVWGQGTTVTVSS
VL: DIQMTQSPSSLSASVGDRVTITCRASQSINSYLDWYQQKPGKAPKLLIYAASSLQSGVPSRFSGSGSGTDFTLTISSLQPEDFATYYCQQYYSTPFTFGPGTKVEIKR
modifications: Asn-30 deamidated in 37.7% (peptide mapping)
- Relative Potency (%) [1]: 80%

B8: Tremelimumab incubated in PBS at 37° C., week 3 (antibody, human IgG2, kappa, V domains shown)
VH: QVQLVESGGGVVQPGRSLRLSCAASGFTFSSYGMHWVRQAPGKGLEWVAVIWYDGSNKYYADSVKGRFTISRDNSKNTLYLQMNSLRAEDTAVYYCARDPRGATLYYYYYGMDVWGQGTTVTVSS
VL: DIQMTQSPSSLSASVGDRVTITCRASQSINSYLDWYQQKPGKAPKLLIYAASSLQSGVPSRFSGSGSGTDFTLTISSLQPEDFATYYCQQYYSTPFTFGPGTKVEIKR
modifications: Asn-30 deamidated in 27.0% (peptide mapping)
- Relative Potency (%) [1]: 93%

B9: Tremelimumab incubated in human serum at 37° C., week 1 (antibody, human IgG2, kappa, V domains shown)
VH: QVQLVESGGGVVQPGRSLRLSCAASGFTFSSYGMHWVRQAPGKGLEWVAVIWYDGSNKYYADSVKGRFTISRDNSKNTLYLQMNSLRAEDTAVYYCARDPRGATLYYYYYGMDVWGQGTTVTVSS
VL: DIQMTQSPSSLSASVGDRVTITCRASQSINSYLDWYQQKPGKAPKLLIYAASSLQSGVPSRFSGSGSGTDFTLTISSLQPEDFATYYCQQYYSTPFTFGPGTKVEIKR
modifications: Asn-30 deamidated in 11.1% (peptide mapping)
- Relative Potency (%) [1]: 98%

B10: Tremelimumab incubated in PBS at 37° C., week 5 (antibody, human IgG2, kappa, V domains shown)
VH: QVQLVESGGGVVQPGRSLRLSCAASGFTFSSYGMHWVRQAPGKGLEWVAVIWYDGSNKYYADSVKGRFTISRDNSKNTLYLQMNSLRAEDTAVYYCARDPRGATLYYYYYGMDVWGQGTTVTVSS
VL: DIQMTQSPSSLSASVGDRVTITCRASQSINSYLDWYQQKPGKAPKLLIYAASSLQSGVPSRFSGSGSGTDFTLTISSLQPEDFATYYCQQYYSTPFTFGPGTKVEIKR
modifications: Asn-30 deamidated in 44.7% (peptide mapping)
- Relative Potency (%) [1]: 76%

B11: Tremelimumab incubated in PBS at 37° C., week 1 (antibody, human IgG2, kappa, V domains shown)
VH: QVQLVESGGGVVQPGRSLRLSCAASGFTFSSYGMHWVRQAPGKGLEWVAVIWYDGSNKYYADSVKGRFTISRDNSKNTLYLQMNSLRAEDTAVYYCARDPRGATLYYYYYGMDVWGQGTTVTVSS
VL: DIQMTQSPSSLSASVGDRVTITCRASQSINSYLDWYQQKPGKAPKLLIYAASSLQSGVPSRFSGSGSGTDFTLTISSLQPEDFATYYCQQYYSTPFTFGPGTKVEIKR
modifications: Asn-30 deamidated in 8.8% (peptide mapping)
- Relative Potency (%) [1]: 96%

B12: Tremelimumab incubated in human serum at 37° C., week 3 (antibody, human IgG2, kappa, V domains shown)
VH: QVQLVESGGGVVQPGRSLRLSCAASGFTFSSYGMHWVRQAPGKGLEWVAVIWYDGSNKYYADSVKGRFTISRDNSKNTLYLQMNSLRAEDTAVYYCARDPRGATLYYYYYGMDVWGQGTTVTVSS
VL: DIQMTQSPSSLSASVGDRVTITCRASQSINSYLDWYQQKPGKAPKLLIYAASSLQSGVPSRFSGSGSGTDFTLTISSLQPEDFATYYCQQYYSTPFTFGPGTKVEIKR
modifications: Asn-30 deamidated in 33.9% (peptide mapping)
- Relative Potency (%) [1]: 82%

B13: Tremelimumab, chemical oxidation study (100 ppm H2O2), Control t = 0 (antibody, human IgG2, kappa)
heavy: QVQLVESGGGVVQPGRSLRLSCAASGFTFSSYGMHWVRQAPGKGLEWVAVIWYDGSNKYYADSVKGRFTISRDNSKNTLYLQMNSLRAEDTAVYYCARDPRGATLYYYYYGMDVWGQGTTVTVSSASTKGPSVFPLAPCSRSTSESTAALGCLVKDYFPEPVTVSWNSGALTSGVHTFPAVLQSSGLYSLSSVVTVPSSNFGTQTYTCNVDHKPSNTKVDKTVERKCCVECPPCPAPPVAGPSVFLFPPKPKDTLMISRTPEVTCVVVDVSHEDPEVQFNWYVDGVEVHNAKTKPREEQFNSTFRVVSVLTVVHQDWLNGKEYKCKVSNKGLPAPIEKTISKTKGQPREPQVYTLPPSREEMTKNQVSLTCLVKGFYPSDIAVEWESNGQPENNYKTTPPMLDSDGSFFLYSKLTVDKSRWQQGNVFSCSVMHEALHNHYTQKSLSLSPGK
light: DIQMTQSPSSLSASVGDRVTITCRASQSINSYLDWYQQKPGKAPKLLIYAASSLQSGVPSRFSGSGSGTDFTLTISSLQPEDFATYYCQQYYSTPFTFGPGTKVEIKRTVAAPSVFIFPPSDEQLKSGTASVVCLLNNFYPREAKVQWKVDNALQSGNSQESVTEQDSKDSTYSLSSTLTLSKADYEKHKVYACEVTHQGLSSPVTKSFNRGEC
modifications: oxidation by peptide mapping: Met-256 1.2%, Met-362 0.9%, Met-401 1.4%, Met-432 0.2%
- Relative FcRn Binding (%) (recombinant FcRn): 89%
- Relative Potency (%) [2]: 100%

B14: Tremelimumab incubated with 100 ppm H2O2 for 2 days (antibody, human IgG2, kappa)
heavy: QVQLVESGGGVVQPGRSLRLSCAASGFTFSSYGMHWVRQAPGKGLEWVAVIWYDGSNKYYADSVKGRFTISRDNSKNTLYLQMNSLRAEDTAVYYCARDPRGATLYYYYYGMDVWGQGTTVTVSSASTKGPSVFPLAPCSRSTSESTAALGCLVKDYFPEPVTVSWNSGALTSGVHTFPAVLQSSGLYSLSSVVTVPSSNFGTQTYTCNVDHKPSNTKVDKTVERKCCVECPPCPAPPVAGPSVFLFPPKPKDTLMISRTPEVTCVVVDVSHEDPEVQFNWYVDGVEVHNAKTKPREEQFNSTFRVVSVLTVVHQDWLNGKEYKCKVSNKGLPAPIEKTISKTKGQPREPQVYTLPPSREEMTKNQVSLTCLVKGFYPSDIAVEWESNGQPENNYKTTPPMLDSDGSFFLYSKLTVDKSRWQQGNVFSCSVMHEALHNHYTQKSLSLSPGK
light: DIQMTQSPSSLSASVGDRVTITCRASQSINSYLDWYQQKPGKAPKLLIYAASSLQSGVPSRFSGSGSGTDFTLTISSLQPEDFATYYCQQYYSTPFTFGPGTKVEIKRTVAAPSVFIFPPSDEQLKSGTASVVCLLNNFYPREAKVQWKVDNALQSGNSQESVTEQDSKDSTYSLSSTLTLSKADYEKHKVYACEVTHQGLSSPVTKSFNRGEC
modifications: oxidation by peptide mapping: Met-256 55.8%, Met-362 17.8%, Met-401 44.6%, Met-432 20.7%
- Relative FcRn Binding (%) (recombinant FcRn): 37%
- Relative Potency (%) [2]: 88%

B15: Tremelimumab incubated with 100 ppm H2O2 for 25 hours (antibody, human IgG2, kappa)
heavy: QVQLVESGGGVVQPGRSLRLSCAASGFTFSSYGMHWVRQAPGKGLEWVAVIWYDGSNKYYADSVKGRFTISRDNSKNTLYLQMNSLRAEDTAVYYCARDPRGATLYYYYYGMDVWGQGTTVTVSSASTKGPSVFPLAPCSRSTSESTAALGCLVKDYFPEPVTVSWNSGALTSGVHTFPAVLQSSGLYSLSSVVTVPSSNFGTQTYTCNVDHKPSNTKVDKTVERKCCVECPPCPAPPVAGPSVFLFPPKPKDTLMISRTPEVTCVVVDVSHEDPEVQFNWYVDGVEVHNAKTKPREEQFNSTFRVVSVLTVVHQDWLNGKEYKCKVSNKGLPAPIEKTISKTKGQPREPQVYTLPPSREEMTKNQVSLTCLVKGFYPSDIAVEWESNGQPENNYKTTPPMLDSDGSFFLYSKLTVDKSRWQQGNVFSCSVMHEALHNHYTQKSLSLSPGK
light: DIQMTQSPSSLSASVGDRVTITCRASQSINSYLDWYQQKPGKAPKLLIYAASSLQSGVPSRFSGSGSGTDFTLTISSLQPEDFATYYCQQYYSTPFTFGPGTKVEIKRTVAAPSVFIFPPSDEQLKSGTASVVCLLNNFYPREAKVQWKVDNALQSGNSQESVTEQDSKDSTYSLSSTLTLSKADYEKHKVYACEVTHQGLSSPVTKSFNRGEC
modifications: oxidation by peptide mapping: Met-256 35.5%, Met-362 9.7%, Met-401 28.7%, Met-432 7.8%
- Relative FcRn Binding (%) (recombinant FcRn): 91%
- Relative Potency (%) [2]: 83%

B16: Tremelimumab incubated with 100 ppm H2O2 for 8 hours (antibody, human IgG2, kappa)
heavy: QVQLVESGGGVVQPGRSLRLSCAASGFTFSSYGMHWVRQAPGKGLEWVAVIWYDGSNKYYADSVKGRFTISRDNSKNTLYLQMNSLRAEDTAVYYCARDPRGATLYYYYYGMDVWGQGTTVTVSSASTKGPSVFPLAPCSRSTSESTAALGCLVKDYFPEPVTVSWNSGALTSGVHTFPAVLQSSGLYSLSSVVTVPSSNFGTQTYTCNVDHKPSNTKVDKTVERKCCVECPPCPAPPVAGPSVFLFPPKPKDTLMISRTPEVTCVVVDVSHEDPEVQFNWYVDGVEVHNAKTKPREEQFNSTFRVVSVLTVVHQDWLNGKEYKCKVSNKGLPAPIEKTISKTKGQPREPQVYTLPPSREEMTKNQVSLTCLVKGFYPSDIAVEWESNGQPENNYKTTPPMLDSDGSFFLYSKLTVDKSRWQQGNVFSCSVMHEALHNHYTQKSLSLSPGK
light: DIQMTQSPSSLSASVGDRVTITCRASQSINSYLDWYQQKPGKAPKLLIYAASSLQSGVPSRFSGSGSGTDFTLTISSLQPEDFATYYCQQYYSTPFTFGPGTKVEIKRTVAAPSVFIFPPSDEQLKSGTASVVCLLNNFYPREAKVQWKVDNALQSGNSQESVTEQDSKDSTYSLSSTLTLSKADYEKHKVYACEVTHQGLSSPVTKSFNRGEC
modifications: oxidation by peptide mapping: Met-256 13.4%, Met-362 3.9%, Met-401 13.3%, Met-432 2.4%
- Relative FcRn Binding (%) (recombinant FcRn): 93%
- Relative Potency (%) [2]: 88%
